Measured values taken from PMC5979045.

Target: Toll-like receptor 4 (TLR4) on mouse bone marrow-derived dendritic cells (mouse (endogenous in bone marrow-derived DCs)) (UniProt Q9QUK6)
Assay: flow cytometry on cells; immature bone marrow-derived DCs of WT C57 BL/6 mice, pre-incubated with IgG1 isotype, TLR2 blocking or TLR4 blocking antibody on ice for 1 h, then stained with anti-CD11c APC, anti-TLR2-FITC, anti-TLR4-PE-Cy7 and rTs-Hsp70-PE on ice for 30 min; rTs-Hsp70-PE and TLR2-FITC or TLR4-PE-Cy7 double positive cells among CD11c+ cells

UniProt Q9QUK6, sequence (Q9QUK6 26-835): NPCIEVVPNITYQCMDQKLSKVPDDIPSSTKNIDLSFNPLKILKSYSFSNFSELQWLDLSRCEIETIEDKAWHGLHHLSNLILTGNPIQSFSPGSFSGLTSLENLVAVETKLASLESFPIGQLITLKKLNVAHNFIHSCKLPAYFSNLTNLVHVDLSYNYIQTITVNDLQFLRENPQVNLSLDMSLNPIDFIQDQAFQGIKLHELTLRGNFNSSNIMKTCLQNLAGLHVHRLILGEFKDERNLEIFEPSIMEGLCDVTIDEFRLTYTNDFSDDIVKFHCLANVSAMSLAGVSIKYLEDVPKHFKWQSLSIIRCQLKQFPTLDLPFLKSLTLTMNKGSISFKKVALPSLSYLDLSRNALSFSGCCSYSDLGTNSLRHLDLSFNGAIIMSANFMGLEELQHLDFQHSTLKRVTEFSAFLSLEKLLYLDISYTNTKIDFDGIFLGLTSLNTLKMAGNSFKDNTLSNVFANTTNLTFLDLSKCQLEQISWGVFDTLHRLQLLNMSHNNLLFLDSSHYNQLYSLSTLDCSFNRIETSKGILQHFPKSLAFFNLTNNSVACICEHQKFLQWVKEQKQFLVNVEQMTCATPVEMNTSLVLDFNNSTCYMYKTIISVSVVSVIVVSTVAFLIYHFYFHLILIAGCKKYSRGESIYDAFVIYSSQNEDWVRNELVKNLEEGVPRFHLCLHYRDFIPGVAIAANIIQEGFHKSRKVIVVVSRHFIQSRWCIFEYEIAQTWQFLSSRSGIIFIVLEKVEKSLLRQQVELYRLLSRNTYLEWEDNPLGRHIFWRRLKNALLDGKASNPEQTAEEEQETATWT

Recombinant Trichinella spiralis Heat shock protein 70 (natural protein)
percent of TLR4+ cells on CD11c+ DCs bound by rTs-Hsp70: 12.3%
